Target: T1, recombinant human MCP-1 (CCL2) (human, UniProt P13500 24-99)
T1 construct: Bought recombinant protein; also called RHMCP-1; monocyte chemoattractant protein-1
Assay: direct ELISA (O.D. 450 nm), chemokine coated at 100 ng/ml, CCR2(E3)-IgG at 5 ug/ml; reference: other human chemokines tested
Experimental: ELISA—The binding specificity of CCR2(E3)-IgG to various commercially available human chemokines (PeproTech, Rocky Hill, N.J.) was determined by direct ELISA as follows: 96-well ELISA plates (Nunc, Roskilde, Denemark) were coated with 100 ng/ml of each chemokine, washed and blocked with 1% BSA/PBS. CCR2(E3)-IgG at a concentration 5 μg/ml was then added. HRP labeled mouse anti human Ig (Jackson, Pa.) was added as a second Antibody. Results are shown as O.D. reading at 450 nm. Anti CCL2 monoclonal antibody (MAB679; R&D Systems, Minneapolis, […].) was used as a positive control (1 μg/ml).

T1 sequence (P13500 24-99 limits assumed): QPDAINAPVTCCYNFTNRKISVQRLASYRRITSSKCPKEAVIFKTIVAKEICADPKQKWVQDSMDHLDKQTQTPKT

fold binding against other factors tested: ~4 fold
B1: CCR2(E3)-IgG fusion protein (Fc fusion)
chain: GLSNCESTSQLDQATQVTET
notes: also called Ig-E3; CCR2-IgG; not shown: constant region (Hinge-CH2-CH3) of human IgG1 heavy chain, ligated downstream of CCR2 (E3)

— patent US20110033521A1 (RAPPAPORT FAMILY INSTITUTE FOR RESEARCH IN THE MEDICAL …, published 2011)
